# Results: US6342348 (GENETECH, dated 2002)
# T1: recombinant soluble rat GDNFRα (rat, UniProt Q62997 25-427, limits assumed)
# T1 construct: also called rGDNFRα; GFR-alpha-1
# T1 sequence (looked up): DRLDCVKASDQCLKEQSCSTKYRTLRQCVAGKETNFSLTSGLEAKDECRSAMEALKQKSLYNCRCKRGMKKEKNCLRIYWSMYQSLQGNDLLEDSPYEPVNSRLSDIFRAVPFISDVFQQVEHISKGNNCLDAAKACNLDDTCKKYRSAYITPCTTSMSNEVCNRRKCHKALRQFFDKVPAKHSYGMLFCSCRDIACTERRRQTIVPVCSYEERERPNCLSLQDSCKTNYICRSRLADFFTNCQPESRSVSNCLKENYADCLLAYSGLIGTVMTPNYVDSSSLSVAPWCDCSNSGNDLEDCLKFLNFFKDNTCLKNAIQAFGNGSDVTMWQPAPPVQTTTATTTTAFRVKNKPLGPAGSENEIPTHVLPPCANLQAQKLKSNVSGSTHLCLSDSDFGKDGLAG
# B1: rat GDNF (ligand, UniProt Q07731 78-211, looked up)
# chain: SPDKQAAALPRRERNRQAAAASPENSRGKGRRGQRGKNRGCVLTAIHLNVTDLGLGYETKEELIFRYCSGSCEAAETMYDKILKNLSRSRRLTSDKVGQACCRPVAFDDDLSFLDDSLVYHILRKHSAKRCGCI
# modifications: ^125I label (iodinated either on tyrosine by the Bolton Hunter method or on lysine using lactoperoxidase)
# notes: also called rGDNF; RGDNF
# Molecular target: T1, recombinant soluble rat GDNFRα
# Experiment: equilibrium competition binding of ^125I-rGDNF to recombinant soluble rGDNFRα, Scatchard
binder,measurement,value
B1,Kd,3 pM
